Target: 6-P-β-glucosidase from Lactobacillus plantarum WCFS1 (LpPgb1) (Lactobacillus plantarum WCFS1)
Experiment: SEC; Superdex 200 16/60, 20 mM HEPES-NaOH pH 8.0, 250 mM NaCl, 2 mM DTT, proteins ~3 mg/ml, 1 ml/min, calibrated with ferritin, aldolase, conalbumin and ovalbumin; oligomeric state from the elution volume

stoichiometry N: 2
Substance: 6-P-β-glucosidase from Lactobacillus plantarum WCFS1 (LpPgb1) (enzyme)
